# Test results published in article PMC8983682 (Nature Communications, 2022).
# Target: full-length N1-CA09-sNAp-130, membrane-anchored, C-terminal myc tag (Influenza A virus A/California/07/2009 …, UniProt C7FH46, stabilised)
# Assay: flow cytometry on cells
# Settings: one partner purified
binder,measurement,value
"CD6 IgG (antibody, V domains shown, copies: 2 + 2) VH: QVKLQESGGGLVQPKGSLKLSCAASGFTFNTYAMNWVRQAPGKGLEWVARIRSKSNNYATFYADSVKDRFTISRDDSQSMLYLQMHNLKTDDTAMYYCVRPSIYYYASGYLDVWGAGTTVTVSS VL: QIVLSQSPAILSASPGEKVTMTCRTSSSVSYMHWYQQKPGSSPKPWIYATSNLASGVPFRFSGSGSGTSYSLTISRVEAEDAATYYCQQWNSNPPTFGGGTKLEIK",binding result,binds
